Laboratory results reported in the nanobody polyreactivity screen of Harvey et al. (2022).

Assay: yeast display, Sf9 membrane polyspecificity reagent, FACS + sequencing; frameworks hold sequencing errors
Method in brief: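 A nanobody's polyreactivity label depends on the gate it was sorted from. Yeast display cells were stained with 10% biotinylated, detergent-solubilized Sf9 membrane reagent for 1 hour at 4 °C, enriched on streptavidin microbeads and sorted by FACS. The low and high (top ~1%) gates were set on anti-HA fluorescence for expression and streptavidin fluorescence for reagent binding.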

Sequence | polyreactivity (PSR sort gate)
QVQLVESGGGLVQAGGSLRLSCAASGSIFTVYAMGWSRQAPGKERELVAAITSGGSTNYADSVKGRFTISRDNAKNTVYLQMNSLKPEDTAVYDCNAVWRYGSARYGYWGQGTQVTVSS | low polyreactivity
QVHLVESGGGLVQAGGSLRVSCAASGSIFPYAMGCYRQAPGKEREFVAAITSGVRTNYADSVKGRFTISRDNAKNNVYLQINSLKPEDTAVYYCAARYFPHYYSKYDYWGPGTQVTVSS | low polyreactivity
QVQLVESGGGLVQAGGSLRLSCASSGRTFYRNAMGWYRQAPGKERELVAAIRGSGSSTYYADSVKGRFTISRDNAKNSVYLQMKSLKQEDTAVYYCAADYINYNGYARYYFWGQGTQVTVSS | high polyreactivity
QVQLVESGGGLVQAGGSLRLSCAASGRIFAVNAMGWYRQAPGKERELVASIRWSGGSTYYADSVKGRFTISRDNAKNTVYLQMNSLKPEDTAVYYCAAVIYLWGQGTQVTVSS | high polyreactivity
QVQLVESGGGLVQAGRSLRLSCAATGLIFLLNAMGWYRQAPGKERELVAVITRVGDTNYADSVKGRFTISRDNAKNTVYLQMNSLKPEDTAVYSCAATSLTYEGYYWRQGTQVTVSS | low polyreactivity
QVQLVESAGGLVQAGGSLRLSCAASGITFYEYVMGWYRQAPGKERELVASIDWSGGGTYYADSVKGRFTISRDNAKNTVYLQMNSLKPEDTAVYYCNADYFDYSRPRYDYWGQGTQVTVSS | low polyreactivity
QVQLVESGGGLVQAGGSLRLSCAASGRTFAEYAMGWYRQAPGKERELVAAISKRGGSTYYADSVKGRFTISRDNAKNTVYLQMNSLKPEDTAVYYCNKVNRVPSYGHEVGYWGQGTQVTVSS | high polyreactivity
QVQLVESGGGLVQAGGSLRLSCAASGFTFKSYAMGWYRQAPGKEREFVASISRRGGSTYYADSVKGRFTISRDNAKNTVYLQMNSLKPEDTAVYYCATDRPNWVFVDYNYWGQGTQVTVSS | high polyreactivity
QVQLVESGGALVQAGGSLRLSCAASGSTFNRYAMGWYRQAPGKERELVAAISASGGSTYYADSVKGRFTISRDNAKNTVYLQMNSLKPEDTAVYYCATLHYVGQEHDYWGQGTQVTVSS | low polyreactivity
QVQLVESGGGLVQAGGSLRLSCAASGSTFPPYVMGWYRQAPGKERELVAAITWSSGSTYYADSVKGRFTISRDNAKNTVYLQMNSLKPEDTAVYYCAAKWLGYGFDYWGQGTQVTVSS | low polyreactivity
QVQLVESGGGLVQAGGSLRLICAASGSTFHAYAMGWYRQAPGKEREMVAAISWRGGSTYYADSVKGRFTISRDNAKNTVYLQMNSLKPEDTAVYYCAASVQGLFGTSGMEGVDYWGQGTQVTVSS | high polyreactivity
QVLLVESGGGLVHAGGSLRVSCASSGFTFKENAMGWYRQAPGKERELVAAISSTGGSTYYADSVKGRFTISRDNAKNTVFLLMNSLKPEDTAVYYCAASTYWYDGDYWGQGTQVTVSS | high polyreactivity
QVQLVESGGGLVQAGGSLRLSCAASGFIFRYYAMGWYRQAPGKERELVAAIRRGGSTSYADSVKGRFTISRDNAKNTVYLQMNSLKPEDTAVYYCNALGNFGMDYWGQGTQVTVSS | high polyreactivity
QVQLVESGGGLVQAGGSLRLSCAASGSIFVRYAMGWYRQAPGKERELVAAISSGGRTYYADSVKGRFTISRDNAKYTVYLQMNSLKPEDTAVYYCNAVKRVPSLGPYDYWGQGTQVTVSS | high polyreactivity
QVQLGETGGGLVQAGGSLRLSCAATGSIFRYNAMGWYRQAPGKERELVAAISGRGTSTYYADSVKGRFTISRDNAKNTVYLQMNSLKPEDTAVYYCAAVYFSSFLVEYYYWGQGTQVTVSS | high polyreactivity
QVQHVESGGGLVQAGGSLRLSCAASGRTFWTNALGWYRQAPGKEREFVGAISWRGASTFYADSVKGRFTISRDHAKNTVYLQMTSLKPEDTAVYDCAAQSRTRSFYGKFDSWGQGTQVTVSS | low polyreactivity
QDQLVESGGGLVQAGGSLRLSCAASGTIFDVYAMGWYIQAPGKERELVAAISYGGGSTYYADSVKGRFTISRDNAKNTVYLQINSLKPEDTAVYYCAADDDVYGLEYGYWGQGTQVTVSS | low polyreactivity
QVQLVESGGGLVQAGGSLRLSCASSGFIFWYYAMGWYRQAPGKERELVAAISSGDSKNYADSVKGRFTISRDNAKNTVYLQMNCLKPEDTAVYYCAARQPRTQAVYEGYYWGHGTQVTVSS | high polyreactivity
QVQLVESGGGLVQAGVSLRLSCDASGSTFHYYVMGSSRQAPGKEREFVAAISRSGGNPYYADSVKGRFTISRDNAKNTVYLQMNSLKPDDTAVYYCAAALSAYVKWDYYYCGQGTQVTVSS | low polyreactivity
QVHLVESGGGLVQAGGSLRLSCAASGFIFDYYAMGWYRQAPGKERELVAAITGSGGGTYYADSVKGRFTISRDNAKNTVYLQMNSLKPEDSAVYYCNAYVPYPYSSEVQDYDYWGQCTQVTVSS | high polyreactivity
QVQLVESGGGLVQAGGSLRLSCAASGSIFAYYTMGWSRQAPGKERELVATISSRGGSTNYADSVKGRFTISRDNAKNTVYLQMNSLKPEDTAVYYCNTAGAADRRRAYDHDYWGQGTQVTVSS | high polyreactivity
QDQHVESGGGVVQAGGSRRLSCAASGFTISSYAMGWYRPAPGKERHLVAAITWSGSRTYYADSVKGRFTISRDNAKNTVYLQMNSLKPEDTAVYYCAATYRSYRGVRYYLGQGTQVTVSS | high polyreactivity

Sequence | polyreactivity (PSR sort gate)
HVQLVESGGGLVQAGGSLRLTCAASGLTFSSYAMGWYRQAPGKERELVADITYRGGSTYYADSVKGRFTISRDNEKNTVYLQMNSLKPEDTAVYYCAARKKYRFDYWGQGTQVTVSS | high polyreactivity
QVQLVESRGGLVQAGGSLRLSCSASGRIFTTYAMGWYRQAPGKEREFVAAISRSGGSTYYADSVKGRFTISRDNAKNTVYLQMNSLKPEDTAVYYCAAVPTSNSLRSSFSYWGQGSQVTVSS | high polyreactivity
QVQLVESGGGLVQAGGSLRLSCAASGSTFKYYTMGWYIQAPGKERELVAAITWRGGSTYYADSVKGRFTISRDNAKNTVYLQMNSLKPEDTAVYYCNVLQRYGASRYDYWGQGTQVTVSS | high polyreactivity
QVQLVESGGGLVQAGGSLRLSCAASGSIFRYNAMGWYRKAPGKERELVAAIRSGGSTYYADSVKGRFTISRDNAKNTVYLQMNSLKPEDTAVYYCNARRYVGYDYWGQGTQVTVSS | high polyreactivity
QVQLVESGGGLVQAGGSLRLSCAASGSTFPLYAMGWYRQAPGKERELVATITGSGGSTNYADSVKGRFTISRDNAKNTVYLQMNSLKPEDTAVYYCNARRRRLVSYYYWGQGTQVTVSS | high polyreactivity
QVQLVESGGGLVQAGGSLRLSCAASGSTFRPYAMGWYRQAPGKERELLAAISSGDTTDYADSVKGRFTISRDNAKNTVYLQMNSLKPEDNAVYYCATVFNDLTVYEYWSRFDYWGPGTQVTVSS | low polyreactivity
QLQLVESGGGLVQAGGSLRLSCAASGSTFWRYAMGWYRQAPGKERELVAAISWNGGSTYYADSVKGRFTISRDNAKNTVYLQMNSLKPEDTAVYYCAADYWFRYGTYEYWGQGTQGTVSS | high polyreactivity
QVQLVESGGGLVQAGGSLRLSCAASGFTFGNYAMGWYRQAPGKERELVAVISYSTGSTYYADSVKGRFTISRDNAKNTVYLQMNSLKPEDTAVYYCAKRYRSYYQGYGYWGQGTQVTVSS | high polyreactivity
QVQLEESGGGLVQAGGSLRLSFAASGFTFVRNTMGWDRQAPGKERELVAAISRSGGSTYYADSVKGRFTISRDKAKNTVYLQMNSLKPEDTAVYYCNAYRYVHYDWGQGTQVTVSS | high polyreactivity
QVQLVESGGGLVQAGGSLRLSCAASGITFDTYVMGWYRQAPGKERELVAAISNSDGSTYYADSVKGRFTISRDNAKNTVYLQMNSLKPEDTAVYYCNAQSYYYWHLRYDYWGQGTQVTVSS | high polyreactivity
QVQLVESGGGLVQAGGSLRLSCAASGRIFSRYAMGLYRQAPGKERELVAAISWSGGSTYYADSVKGRFTISRDNAKNTVYLQMNSLNTEDTAVYYCAPPIKGSDSKYGYWGQCTQVTVSS | high polyreactivity
QVQLVESGGGLVQAGGSLRLSCAASGSTFTANAMGWYRQAPGKERELVAAISDTTGNTYYADSVKGRFTISRDNAKNTVYLQMNSLKPEDTAVYYCAARQFKSDIVVSLVDSWGQGTHVTVSS | low polyreactivity
QVQLVESGGGLVQAVGSLRLSCASSGYTFDYYTMGWYRQAPGKERELVARITASGGSTYYADSVKGRFTISRDNAKNTVYLQMNSLKPEDTAVYYCAKAWYRYSRFDYWGQGTQVTVSS | high polyreactivity
QVQLVESGGGLVQAGGSLRLSCAASGRIFLQYDMGWYRQAPGKERELVAGISSRGGSMYYADSVKGRFTISRDNAKNTVYLQMNSLKPEDTAVYYGAAQTKRIRYVYKHYYWGQGTQVTVSS | high polyreactivity
QVQLVESGGGLVQAGGSLRLSCAASGLIFSRYTMGWYRQAPGKERELVAAISKTGSSTYYADSVKGRFTISRDNAKNTVYLQMNSLIPEDTAVYYCAARAYPGYYWGQGTQVTVSS | high polyreactivity
QVQLVESGGGLVQAGGSRRLSCAASGRTFYYAMGWYRQAPGKETQLVATITSGGGSTYYADSVKGRFSISRDNAKNTVYLQMNSLKPEDTAVYYCAADYKSSPPLPEYDYWGQGTQVTVSS | high polyreactivity
QVHLVESGGGLVQAGGSLRLSCAASGSTLGYYAMGWYRQAPGKERELVASIRWDTASTYYADSVKGRFTISRDNAKNTVYLQMNSLKPEDTAVYYCNAGRPRFYRCRWYYYGYGYWGQGTQVTVSS | high polyreactivity
QDQLVESGGGIVQAGVSLRLSCAANGIIFDYYAMGWYRQAPGKERELVAAINRNGGTTYYADSVKGRFTISRDNAKNTVYLQMICLKPEDTAVYYCAAVDFGWSTYYYWGQGTQVTVAS | high polyreactivity
QVQLVESGGGLVQAGGSLRLSCAASGRIFSKNAMGWYRQAPGKEMEFVATISYGDGSTYYADSVKGRFTISRDNAKNTVYLQMNSLKPEDTAVYYCAATIGHNGFDYWGQGTQVTVSS | low polyreactivity
QFQLVESGGGLVQAGGSLRLSCAASGRIFFSNAMGWYRQAPGKERELVASITGGDDTNYADSVKGRFTISRDNAKNSVYLQMNSLKPEDTAFYYCAARAIPSYRWVYRFAPKYDYWGQGTQVTVSS | low polyreactivity
QVQLVETGGGLVQAGGSLRISCAASGLILDGYALGWYRQAPGKERELVAAITRSGGRTYYADSVKWRFTISRDNAKNTVYLQMNRLKPEDTAVYDCAALGWSGRYRYDYWGQGTLVTVSS | high polyreactivity
